Experimental data taken from the nanobody polyreactivity screen of Harvey et al. (2022).

Experiment: yeast display, Sf9 membrane polyspecificity reagent, FACS + sequencing; frameworks hold sequencing errors
Summary of the method: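 Polyreactivity labels are assigned by the sorting gate from which each nanobody was recovered. The gates were low and high (top ~1%), set on anti-HA fluorescence for expression and streptavidin fluorescence for reagent binding. Before sorting, galactose-induced (36–48 hours) yeast display cells were stained for 1 hour at 4 °C with 10% biotinylated, detergent-solubilized Sf9 membrane reagent.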

Sequence | polyreactivity (PSR sort gate)
QVQLVESGVGLVQAGGSLRLSCAASGLTFVDNVMGWYRQAPRTERELVADISSSGGSTYADSVKGRFTISRDNAKNTVYFQMNSLKPEDTAVYYCAAGDDSSGEQVDYWGQGTQVTVSS | low polyreactivity
QVQLVESGGGLVQAGGSLRLSCAASGRIFRVNSMGWYRQAPGKEREFVAAITKNGGSTYYADSVKGRFTISLDNANNTVYLQMNSLKPEDTAVYYCAVRAWDPYTGKCVYWGQGTQVTVSW | low polyreactivity
QVQLVESGGGLVQAGGSLRLSCAASGRTLGGYAMGWYRQAPGKERELVASITARGGSTYYADSVKGRFTISRDNAKNTVYLQMNSLKPEDTAVYYCNKRTRRTYDYWGQGTQVTVSS | high polyreactivity
QVQLQESGGGLVLAGGSLRLSCAESGYISWSFTMGWYRTAPGKERELVAGITYGGITYYADSVKGRFTISRDNAKNTVYLQMNSLKPEDTAVYYCNARKHGQGRNGYGSWGQGTQVTVSS | high polyreactivity
QVQLVESGGGLVQAGGSLRLSCAASGRTFTEYAMGWYRQAPGKERELVARISIGDSTYYADSVKGRFTISRDNAKNTVYLQMNSLKPEDTAVYYCNAEYSRSYRYDECYWGQGTQVTVSS | low polyreactivity
QVQLHESGGGLVQAGGGLRLSCAASGSISSTGFMGWYRQAPGKEREPVAAIAQGTTTYYAESVKGRFTISRDNAINTVYLQMNSLRPEDTAVYYCAVFTDNRVAFLYWGQGTQVTVRS | low polyreactivity
QVQLVESGGGLVHAGGSLRLSCAASGLIFYDNMGWYRQAPGKERELVAAISSSGGSTSYADSVKGRFTISRDNAKNTVYLQMNSLKPEDTAVYYCAAVSGPFVQTSGNGEYDYWGQGTQVTVSS | low polyreactivity
QVQLVESGGGLVQAGGSLRLSCAASGRTFRANVMGWYRQAPGKERELVAAISKSGGRTYYADSVKGRFTISRDNAKNTVYLQMNSLKPEDTAVYYCAADIPSYRGYGYDYWGQGTQVTVSS | high polyreactivity
QVQLVESGGGLVQAGGSLRLSCAASGRIFDYYAMGWYRQAPGKERELVAAINSGGSTYYADSVKGRFTISRDNAKNTVYLQMNSLKPEDTAVYYCAAKSFAPIVDYWGQGTQVTVSS | high polyreactivity
QVQIVESGGGLVQAGGSLRLSCAASGSTFLSNAMGWYRQAPGKERELVATISFSGATYADSVKGRFTIARDNAKNTVYLQMNSLKPEDTAVYYCNRATLNYSGKGDTAYDYWGQGTQVTVSS | low polyreactivity
QVQLVESGGGLVQAGGSLRLSCAASGRTFLRYTMGWYRQAPGKERELVASITRGGSTYYADSVKGRFTISRDNAKNTVYLQMNSLKPEDTAVYYCAAGKALLSRYDYWGQGTQVTVSS | high polyreactivity
QVQLVESGGGLVQAGGSLRLSCAASGSTFWVNVMGWYRQAPGKERELVATITSGGRTNYADSVKGRFTISRDNAKNTVYLQMNSLKPADTAVYDCAADLKRGDLMDYWGQGTQVTVSS | low polyreactivity
QVQLVESGGGLVQAGGSLRLSCAASGIIFKYYARGWYRQAPGKERELVAGITSGGSTYYADSVKGRFTISRDNAKNTVYLQMNSLKPEDTAVYYCATRVRDGSQPQYRRRHSYDYWGQGTQVTVSS | high polyreactivity
QVQLVESGGGLVQAGGSLRLSCAASGLTFILNAMGWYRQAPGKEREFVAAISRSGVRTYYADSVKGRFTISRDNAKNTVYLQMNSLKPEDTAVYYCARVAPASGVRWYYYWGQGTQVTVSS | high polyreactivity
QVQLVESGGGLVQAGGSLRLSCAASGIIFYEYAMGWYRQAPGKERELVAVITSGGTTNYADSVKGRFTISRDNAKNTVYLQMNSLKPEDTAVYYCAADVYWEFSPEYDYWGQGTQVTVSS | low polyreactivity
QVQLVESGGGLVQAGGSLSLSCAASGRIFGYYAMGGYRQAPGKERELVAAITTGGNTYYAESVKGRFTISRDNAKNTVNLQMNSLKPEDTAVYYCNKRSYAYYSYAVFTWVDYWGQGTQVTVSS | low polyreactivity
QVQLVESGGGLVQAGGSLRLSCAASGSTFQVYGMGWYRQAPGKERELVAAISRSGGRTYYADSVKGRFTISRDNAKNTVYLQMNSLKPEDTAVYYCNAPISYYDEYYYWGQGTQVTVSS | high polyreactivity
QVQLVESGGGLVQAGGSLRLSCAASGSIFNKYAMGWYRQAPGKERELVAAISVSGTRTYYADSVKGRFTISRDTAKNTVYLQMNSLKPEDTAVYYCATKFFRTAYEYWGQGTQVTVSS | high polyreactivity
QVQLVESGGGLVQAGGSLRLSCADSGSTITYYTMGWYRQAPGKERDLVAAISGSGGRTYYADSVKGRFTISRDNAKNTVYLQMNSLKPEDTAVYYCAAGYQLSRYDYWGQGTQVTVSS | high polyreactivity
QVQLVESGGGLVQAGGSLRLSCAASGRTFTRNAMGWYRQAPGKERELVAAITGRGGSTYYADSVKGRFTISRDNAKNTVYLQMNSLKPEDTAVYYCARFYRYSRDYWGQGTQVTVSS | high polyreactivity
QVQLVESGGGLVQAGGSLRLSCAASGFIFQDYAMGWYRQAPGKERELVAAITQSSGSTYYADSVKGRFTISRDNAKNTVYLQMNSLKPEDTAVYYCNTAYDFSRQASYDYWGQVTQVTVSS | low polyreactivity
QVQLGESGGGLVQAGGSLRLSCAASGGTFARNTMGWYRQAPGKERELVAAITRGGSSTYYADSVKGRFTISRDYAKNTVYLQMNSLKPEDTAVYYCNKSLRWLYPYYGTTGRYDYWGQGTQVTVSS | high polyreactivity

Sequence | polyreactivity (PSR sort gate)
QVQLVESGGGLVQAGGSLRLSCAASGRTFRYNAMGWYRQAPGKERELVAGITYNGGSTSYADSVKGRFTISRDNAKNTVYLQMNSLKPEDTAVYYCNVVYNYYGRFGSWGQGTQVTVSS | high polyreactivity
QVQLVESGGGLVQAGGRLRLSCAASGSTFPTNVMGWYRQAPGKERELVAAITKRGSITYYADSVKGRFTISRDNAKNTVYLQMNSLKPEDTAVYYCAARKVAVRGYGYWGQGTQVTVSS | high polyreactivity
QVQLVESVVGLVQPRGSLRLSSASSGRTFRQYAMGRYRQAPGKERDLVAAIRTNGGRTYYADSVKGRFTISRDNAKNTVYLQMNSQKPEDTAVYYCAVYAFVQGVLFDYWGQGTQVTVSS | high polyreactivity
QVQLVESGGGLVQAGGSLRLSCAASGSTFSQNAMGWYRQAPGKERELVAVISSSGGRTNYADSVKGRFTISRDNAKNTVYLQMNSLKPEDSAVYYCAKRLRVLYYYWGQGTQVTVSS | high polyreactivity
QVQLVESGGGLVQAGGSLRLSCAASGFISFPYAMGWYRQAPGKERELDASITRSGGNTYYADSVKGRFTISRDNAKNTVYLQMNRLKPEDTAVYYCNAQIYTYRTGRGYSRLDYWGQGTQVTVSS | high polyreactivity
QVQLVESGGGLVQAGGSLRLSCAASGSIFITYARGWYRQAPGKERELVAAIRDSGDRTYYADSVKGRFTISRDNAKNTVYLQMISLKPEDTAVYYCNARWQEPLKYDYWGQGTQVTVSS | low polyreactivity
QVQLGESGGGLVQAGGSLRLSCAASGRIFPVNAMGWYRQAPGKERELVATITSYSSTYADSVKGRFTISRDNAMNTVVLQMNCLKPEDTAVYYCNADQGYFGYDYWGQGTQVTVSS | low polyreactivity
QVQLVESGGGLVQAGGILRLRCAASGSTYGYYAMGWSRQAPGKERELVAAISGSGGRTYYADSVKGRFTISRDNAKNTVYLQMNSLKPEDTAVYYCNTATKNIYDYCGQGTQVTVSS | high polyreactivity
QVLLQESGGGLVQAGGSLRLSCAASGTISTDIRMGLYSLAPGKAREFVASIDGCSTTYYADSVKGRFTISRDNAKNTVYLKMNSLKPVDTAMYYCAAREATEFYLYYWGQGTQVTVSS | low polyreactivity
QVQLVESGGGLVQAGGSLRLSCAASGSIFRAYAMGWYRQAPGKERELVAGITKSGGSTYYADSVKGRFTISRDNAKNTVYLQMNSLKAEDTAVYYCAAYRSRTYGYWGQGTQVTVSS | high polyreactivity
QVQLADSGGGLVQAGGSLRLICAASGTFGSNAMGWYIQAPGKERELVAAINSGGTTKYADSVKGRFTISRDNAKNTVYLQMNRLKPEDSALYYCNAREGVFSYTVAHDYWGQGTQVTVSS | low polyreactivity
QVPLVESGGGLVQAGGSLRLSCAASGFIFSSNARGWYRQAPGKERELVARITWSDGSTYYADSVKGRFTISRDNAKKTVYLQMNSLKPEDTAVYYCAKGRDATHYEYYLYSMDYWGQGTQVTVSS | low polyreactivity
QVQLVESGGGLVQAGGSLRLSCAASGSIFGPYAMGWYRQAPGKERELVAAISLGGGSTSYADSVKGRFTISRDNAKNTVYLQMNSLKPEDTAVYYCATEDFRTDTGMYYWGQGTQVTVSS | low polyreactivity
QVQLVESGGGLDQAGGSLRLSCAASGNTSPVNAMGWYRQAPGKERELVAAITQSGGSTYYADSVKGRFTISRDNAKNTVYLQMNSLKPEDTAVYYCAAPDAGWRDGGDYWGQGTQVTVSS | low polyreactivity
QVQLVESGGALVQAGGSLRLSCAASGSIYGGYTMGWYRHAPGKEMEFVAAISRRGGNTYYADSVKGRFTISRDNAKNTVYLQMNSLKPEDTAVYYCAVRWPSARIQVKLDYWGQGTQVTVSS | high polyreactivity
QVQLVESGGGLVQAGGSLRLTCAASGSIFAKNAMGWYRQAPGKERELVAAIDLNGGSTYYADSVKGRFTISRDNAKNTDYLQMNSLKPEDTAVYYCAVYYGHSSVIRSSPEYDSWGQGTQVTVSS | low polyreactivity
QVQLVESGGGLGQAGGSLRLSCAASGSNFRPYAMGWYRPAPGKERELVAAISSSGGSTYYADSVKGRFTISRDNAKNTVYLQMNSLKPEDTAVYYCAAVSRSTWIHSRDYWGQGTQVTVSS | low polyreactivity
QVQLVESGGGLVQAGGSLRLSCAASGITFSFYAMGWYRQAPAKERELVATIDSGGSTNYADSVKWRFTISRDNAKNTVYLQMNSLKPEYTAVYYCAADGVWYYYDMDYWGQGTQVTVSS | low polyreactivity
QVQLVESGGGLVQAGGSLRLSCAASGSTFGENAMGWYRQAPGKERELVAAINYSGGSTYYADSVKGRFTISRDNAKNTVYLQMNRLKPEDTAVYYCAAVNLPQLYYDYDYWGQGTQVTVSS | low polyreactivity
QVQLVESGGGLVQAGGSLRLSCAASGSIFYGYAMGWSRQAPGKERELVAVITDGGGSTYYADSVKGRFTISRDNAKNTVYLQMNSLKPEDTAVYYCAADSWGPYYYSSYSYDYWGQGTQVTVSS | low polyreactivity
QVQLLESGGGLVQAGGSLRLSCAASGSIFVKYDMGWYRQAPGKDRELVAAIRSGASTTYADSVKGRFTISRDNAKITVYLQMNSLKPEDTAVYYCAADQRGWGYTYGKGGDYWGQGTQVTVSS | low polyreactivity
